Results reported in article PMC7261175, “A splice site-sensing conformational switch in U2AF2 is modulated by U2AF1 and its recurrent myelodysplasia-associated mutation” (Nucleic Acids Research, 2019).

What was measured:
[1] = target: U2AF2 Cy3/Cy5 isolated subunit (human, UniProt P26368-2 113-342, A181C;C305A;Q324C); assay: smFRET; RNA tethered; preferentially open; Anisotropy: 150 mM NaCl, 25 mM HEPES pH 6.8, 0.5 mM TCEP, 3% glycerol, 20 uM ZnCl2, 0.2 U/ul SUPERase-In; smFRET: 25 mM HEPES pH 7.0, 150 mM KCl, 0.01% octaethylene glycol monododecyl ether, 0.2 mM TCEP, 6 mM BME, 1.5 mM Trolox, oxygen scavenger, room temperature, excess U2AF1 (1000 nM) with heterodimer; settings: protein: recombinant, tags: His6 and T7 tags, label: biotin on annealed DNA
U2AF2 Cy3/Cy5 isolated subunit, sequence (P26368 113-342 A181C/C305A/Q324C): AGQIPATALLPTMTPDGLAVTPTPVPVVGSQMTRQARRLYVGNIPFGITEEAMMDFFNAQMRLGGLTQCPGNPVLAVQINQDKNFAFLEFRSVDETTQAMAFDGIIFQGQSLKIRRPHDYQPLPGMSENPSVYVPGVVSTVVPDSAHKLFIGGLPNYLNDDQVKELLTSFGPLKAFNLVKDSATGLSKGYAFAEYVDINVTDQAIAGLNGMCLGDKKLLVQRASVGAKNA

[2] = target: T1, His6SumoMBP-U2AF1;U2AF2 Cy3/Cy5 (human;human, UniProt Q01081;P26368-2 1-188;85-342, C67S|A181C;C305A;Q324C); assay: smFRET; RNA tethered; more open than DEK(-3U); Anisotropy: 150 mM NaCl, 25 mM HEPES pH 6.8, 0.5 mM TCEP, 3% glycerol, 20 uM ZnCl2, 0.2 U/ul SUPERase-In; smFRET: 25 mM HEPES pH 7.0, 150 mM KCl, 0.01% octaethylene glycol monododecyl ether, 0.2 mM TCEP, 6 mM BME, 1.5 mM Trolox, oxygen scavenger, room temperature, excess U2AF1 (1000 nM) with heterodimer; settings: protein: recombinant;recombinant; tags: N-terminal His6-SUMO-MBP with AAA linker; C-terminal extra Ala;GST cleaved; Cy3/Cy5 on C181 and C324; copies: 1;1; label: biotin on annealed DNA
T1 sequence (Q01081 1-188 C67S, chain 1 of 2): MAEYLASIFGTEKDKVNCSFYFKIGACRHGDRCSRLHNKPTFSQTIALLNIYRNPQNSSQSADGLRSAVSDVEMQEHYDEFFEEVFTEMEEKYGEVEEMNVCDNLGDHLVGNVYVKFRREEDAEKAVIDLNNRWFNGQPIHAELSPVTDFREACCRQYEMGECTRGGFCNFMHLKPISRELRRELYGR
T1 sequence (P26368 85-342 A181C/C305A/Q324C, chain 2 of 2): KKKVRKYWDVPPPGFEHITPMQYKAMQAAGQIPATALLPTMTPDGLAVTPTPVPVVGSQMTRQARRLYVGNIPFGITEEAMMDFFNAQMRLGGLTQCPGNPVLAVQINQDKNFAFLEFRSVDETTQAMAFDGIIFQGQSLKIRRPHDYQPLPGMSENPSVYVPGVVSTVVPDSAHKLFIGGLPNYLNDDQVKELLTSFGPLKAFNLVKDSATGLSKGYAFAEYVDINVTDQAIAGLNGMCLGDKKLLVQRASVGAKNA

[3] = target: T2, His6SumoMBP-U2AF1 S34F;U2AF2 Cy3/Cy5 (human;human, UniProt Q01081;P26368-2 1-188;85-342, S34F;C67S|A181C;C305A;Q324C); assay: smFRET; RNA tethered; slightly more open than DEK(-3U); Anisotropy: 150 mM NaCl, 25 mM HEPES pH 6.8, 0.5 mM TCEP, 3% glycerol, 20 uM ZnCl2, 0.2 U/ul SUPERase-In; smFRET: 25 mM HEPES pH 7.0, 150 mM KCl, 0.01% octaethylene glycol monododecyl ether, 0.2 mM TCEP, 6 mM BME, 1.5 mM Trolox, oxygen scavenger, room temperature, excess U2AF1 (1000 nM) with heterodimer; settings: protein: recombinant;recombinant; tags: N-terminal His6-SUMO-MBP with AAA linker; C-terminal extra Ala;GST cleaved; Cy3/Cy5 on C181 and C324; copies: 1;1; label: biotin on annealed DNA
T2 sequence (Q01081 1-188 S34F/C67S, chain 1 of 2): as the sequence (Q01081 1-188 C67S, chain 1 of 2) above, with S34F counted along it
T2 sequence (P26368 85-342 A181C/C305A/Q324C, chain 2 of 2): as the sequence (P26368 85-342 A181C/C305A/Q324C, chain 2 of 2) above

[4] = target: His6SumoMBP-U2AF1;U2AF2 (human;human, UniProt Q01081;P26368-2 1-188;85-471, C67S|); assay: fluorescence anisotropy; Anisotropy: 150 mM NaCl, 25 mM HEPES pH 6.8, 0.5 mM TCEP, 3% glycerol, 20 uM ZnCl2, 0.2 U/ul SUPERase-In; smFRET: 25 mM HEPES pH 7.0, 150 mM KCl, 0.01% octaethylene glycol monododecyl ether, 0.2 mM TCEP, 6 mM BME, 1.5 mM Trolox, oxygen scavenger, room temperature, excess U2AF1 (1000 nM) with heterodimer; settings: protein: recombinant;recombinant; tags: N-terminal His6-SUMO-MBP with AAA linker; C-terminal extra Ala;GST cleaved by PreScission; copies: 1;1; label: 5'-fluorescein
His6SumoMBP-U2AF1;U2AF2, sequence (Q01081 1-188 C67S, chain 1 of 2): as the sequence (Q01081 1-188 C67S, chain 1 of 2) above
His6SumoMBP-U2AF1;U2AF2, sequence (P26368 other isoform, or with tags, fused parts or gaps C67S|, chain 2 of 2): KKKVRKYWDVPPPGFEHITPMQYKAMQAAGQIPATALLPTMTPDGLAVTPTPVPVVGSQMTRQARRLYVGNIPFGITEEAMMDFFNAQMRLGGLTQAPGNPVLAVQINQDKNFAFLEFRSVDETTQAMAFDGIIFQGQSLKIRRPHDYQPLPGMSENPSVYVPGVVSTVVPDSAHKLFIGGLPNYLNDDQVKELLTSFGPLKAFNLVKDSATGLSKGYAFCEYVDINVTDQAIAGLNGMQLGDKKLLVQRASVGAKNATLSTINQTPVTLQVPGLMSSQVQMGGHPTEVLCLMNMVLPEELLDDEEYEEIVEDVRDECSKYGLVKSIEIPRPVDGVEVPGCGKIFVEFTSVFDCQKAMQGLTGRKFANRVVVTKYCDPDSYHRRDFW

[5] = target: U2AF1 UHM (dZn);U2AF2 (human;human, UniProt Q01081;P26368-2 43-146;85-471, C67S|); assay: fluorescence anisotropy; Kd shown in figure only; Anisotropy: 150 mM NaCl, 25 mM HEPES pH 6.8, 0.5 mM TCEP, 3% glycerol, 20 uM ZnCl2, 0.2 U/ul SUPERase-In; smFRET: 25 mM HEPES pH 7.0, 150 mM KCl, 0.01% octaethylene glycol monododecyl ether, 0.2 mM TCEP, 6 mM BME, 1.5 mM Trolox, oxygen scavenger, room temperature, excess U2AF1 (1000 nM) with heterodimer; settings: protein: recombinant;recombinant; tags: GST cleaved by TEV;GST cleaved by PreScission; copies: 1;1; label: 5'-fluorescein
U2AF1 UHM (dZn);U2AF2, sequence (Q01081 43-146 C67S, chain 1 of 2): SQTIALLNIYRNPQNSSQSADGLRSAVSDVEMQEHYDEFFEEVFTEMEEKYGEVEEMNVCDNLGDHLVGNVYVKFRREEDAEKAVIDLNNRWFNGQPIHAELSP
U2AF1 UHM (dZn);U2AF2, sequence (P26368 other isoform, or with tags, fused parts or gaps C67S|, chain 2 of 2): as the sequence (P26368 other isoform, or with tags, fused parts or gaps C67S|, chain 2 of 2) above

[6] = target: U2AF1 untagged;U2AF2 (human;human, UniProt Q01081;P26368-2 1-193;85-471, |); assay: fluorescence anisotropy; Kd in figure only; tag has no significant influence; Anisotropy: 150 mM NaCl, 25 mM HEPES pH 6.8, 0.5 mM TCEP, 3% glycerol, 20 uM ZnCl2, 0.2 U/ul SUPERase-In; smFRET: 25 mM HEPES pH 7.0, 150 mM KCl, 0.01% octaethylene glycol monododecyl ether, 0.2 mM TCEP, 6 mM BME, 1.5 mM Trolox, oxygen scavenger, room temperature, excess U2AF1 (1000 nM) with heterodimer; settings: protein: recombinant;recombinant; tags: MBP cleaved by TEV; GSGGGGS linker remains;GST cleaved by PreScission; copies: 1;1; label: 5'-fluorescein
U2AF1 untagged;U2AF2, sequence (Q01081 1-193, chain 1 of 2): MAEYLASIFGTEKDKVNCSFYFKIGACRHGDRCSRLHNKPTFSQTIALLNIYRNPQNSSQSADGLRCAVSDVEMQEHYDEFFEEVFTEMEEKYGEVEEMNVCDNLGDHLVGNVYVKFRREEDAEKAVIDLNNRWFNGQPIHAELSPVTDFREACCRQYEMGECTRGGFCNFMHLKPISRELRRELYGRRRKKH
U2AF1 untagged;U2AF2, sequence (P26368 other isoform, or with tags, fused parts or gaps |, chain 2 of 2): as the sequence (P26368 other isoform, or with tags, fused parts or gaps C67S|, chain 2 of 2) above

[7] = target: T2, His6SumoMBP-U2AF1 S34F;U2AF2 Cy3/Cy5; assay: smFRET; RNA tethered; 25% closed; Anisotropy: 150 mM NaCl, 25 mM HEPES pH 6.8, 0.5 mM TCEP, 3% glycerol, 20 uM ZnCl2, 0.2 U/ul SUPERase-In; smFRET: 25 mM HEPES pH 7.0, 150 mM KCl, 0.01% octaethylene glycol monododecyl ether, 0.2 mM TCEP, 6 mM BME, 1.5 mM Trolox, oxygen scavenger, room temperature, excess U2AF1 (1000 nM) with heterodimer; settings: protein: recombinant;recombinant; tags: N-terminal His6-SUMO-MBP with AAA linker; C-terminal extra Ala;GST cleaved; Cy3/Cy5 on C181 and C324; copies: 1;1; label: biotin on annealed DNA
[8] = target: T1, His6SumoMBP-U2AF1;U2AF2 Cy3/Cy5; assay: smFRET; RNA tethered; open 0.4 FRET; Anisotropy: 150 mM NaCl, 25 mM HEPES pH 6.8, 0.5 mM TCEP, 3% glycerol, 20 uM ZnCl2, 0.2 U/ul SUPERase-In; smFRET: 25 mM HEPES pH 7.0, 150 mM KCl, 0.01% octaethylene glycol monododecyl ether, 0.2 mM TCEP, 6 mM BME, 1.5 mM Trolox, oxygen scavenger, room temperature, excess U2AF1 (1000 nM) with heterodimer; settings: protein: recombinant;recombinant; tags: N-terminal His6-SUMO-MBP with AAA linker; C-terminal extra Ala;GST cleaved; Cy3/Cy5 on C181 and C324; copies: 1;1; label: biotin on annealed DNA
[9] = target: His6SumoMBP-U2AF1;U2AF2 Cy3/Cy5 D215R/G319R (human;human, UniProt Q01081;P26368-2 1-188;85-342, C67S|A181C;D215R;C305A;G319R;Q324C); assay: smFRET; RNA tethered; about half closed; Anisotropy: 150 mM NaCl, 25 mM HEPES pH 6.8, 0.5 mM TCEP, 3% glycerol, 20 uM ZnCl2, 0.2 U/ul SUPERase-In; smFRET: 25 mM HEPES pH 7.0, 150 mM KCl, 0.01% octaethylene glycol monododecyl ether, 0.2 mM TCEP, 6 mM BME, 1.5 mM Trolox, oxygen scavenger, room temperature, excess U2AF1 (1000 nM) with heterodimer; settings: protein: recombinant;recombinant; tags: N-terminal His6-SUMO-MBP with AAA linker; C-terminal extra Ala;GST cleaved; Cy3/Cy5 on C181 and C324; copies: 1;1; label: biotin on annealed DNA
His6SumoMBP-U2AF1;U2AF2 Cy3/Cy5 D215R/G319R, sequence (Q01081 1-188 C67S, chain 1 of 2): as the sequence (Q01081 1-188 C67S, chain 1 of 2) above
His6SumoMBP-U2AF1;U2AF2 Cy3/Cy5 D215R/G319R, sequence (P26368 85-342 A181C/D215R/C305A/G319R/Q324C, chain 2 of 2): as the sequence (P26368 85-342 A181C/C305A/Q324C, chain 2 of 2) above, with D131R, G235R counted along it

UACUAAAUUAAUUUCCAGAAAAGAGU (ssRNA, 3' PEG18-DNA conjugate) [DEK(-3C)]
binding result [1]: binds
binding result [2]: binds
binding result [3]: binds

CUGUCCCUUUUUUUUCACAGCUCGCGGUUGAG (ssRNA) [Fl-AdML]
Kd [4]: 120 ± 15 nM
fold weaker binding affinity (Kd ratio) [5]: 35 fold weaker than heterodimer with zinc knuckles
binding result [6]: binds

UCCCUUUUUUUUCCACAGCUCGCGGU (ssRNA, 3' PEG18-DNA conjugate) [AdML tethered]
binding result [7]: binds
binding result [8]: binds
binding result [9]: binds
